Patent publication US20170233472A1 (MacroGenics, published 2017)

Tests used:
[1] = biological target: T1, human ROR1 expressed on the surface of cancer cells (human, UniProt Q01973 30-937); test: cell-based or functional assay
[2] = biological target: T2, His-tagged soluble human ROR1 (shROR1-His) (human, UniProt Q01973 30-406); test: SPR (BIACORE), trivalent binding molecule 6.25 to 100 nM passed over immobilized shROR1-His
T2 construct: also called ROR1 protein; immobilized ROR1; not shown: His-Tag
T2 sequence (Q01973 30-406): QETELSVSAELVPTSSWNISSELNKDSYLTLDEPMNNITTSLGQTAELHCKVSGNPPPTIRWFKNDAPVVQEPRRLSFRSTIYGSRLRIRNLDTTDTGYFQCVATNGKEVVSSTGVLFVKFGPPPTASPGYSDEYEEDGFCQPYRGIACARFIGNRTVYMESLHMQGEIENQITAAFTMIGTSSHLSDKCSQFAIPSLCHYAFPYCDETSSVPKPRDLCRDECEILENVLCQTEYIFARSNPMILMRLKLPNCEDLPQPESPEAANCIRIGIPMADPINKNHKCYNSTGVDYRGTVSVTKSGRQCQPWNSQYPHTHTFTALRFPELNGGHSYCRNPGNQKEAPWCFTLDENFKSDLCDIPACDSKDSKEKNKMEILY
Protocol: The binding kinetics of each of the ROR1×CD3×CD8 trivalent binding molecules to ROR1 was investigated using BIACORE® analysis in which each trivalent binding molecule (6.25 to 100 nM) was passed over immobilized shROR1-His essentially as described above.

[3] = biological target: T2, His-tagged soluble human ROR1 …; test: SPR (Biacore), shROR1-His captured on anti-PentaHis surface, diabody 6.25-100 nM as analyte
Protocol: The binding affinity of DART-1, DART-A, DART-B, and DART-C was investigated using Biacore analysis in which each diabody construct was passed over immobilized ROR1. Briefly, shROR1-His was captured on immobilized anti-PentaHis surface and was incubated with DART-1, DART-A, DART-B or DART-C at 6.25-100 nM, and the kinetics of binding was determined via Biacore analysis.

[4] = biological target: T2, His-tagged soluble human ROR1 …; test: sandwich ELISA: plate coated with shROR1-His, serial dilutions of diabody, bound diabody detected with biotinylated CD3 and streptavidin-HRP; y axis 'Mean Value'
Protocol: (§1) The ability of the bispecific ROR1×CD3 two and three chain diabodies DART-1 and DART-A to bind both ROR1 and CD3 was examined by a sandwich ELISA. Briefly, microtiter plates were coated with shROR1-His, the plates were washed and incubated with three-fold serial dilutions of DART-1 or DART-A. The amount of diabody binding to the immobilized ROR1 was assessed using a biotinylated CD3 detected with Streptavidin-HRP. All samples were analyzed on a plate reader and binding curves generated. […] The cells were washed twice incubated with biotin-conjugated mouse anti-EK-coil antibody that recognizes the E-coil/K-coil (EK) heterodimerization region (100 μL of 1 μg/mL mixed with 1:500 diluted streptavidin-phycoerythrin) for 45 min. The cells were then washed and resuspended with FACS buffer, and analyzed with a BD FCS Canto II flow cytometer using FlowJo v10 software.

[5] = biological target: T2, His-tagged soluble human ROR1 …; test: SPR (Biacore), diabody captured via anti-E/K-coil, shROR1-His as analyte
Protocol: The binding kinetics of DART-1 to DART-6, DART-10 to DART-17, DART-20 to DART-33 was investigated using Biacore analysis in which ROR1 protein was passed over immobilized diabodies. Briefly, each diabody construct was captured on immobilized anti-E/K-coil surface and was incubated with shROR1-His at 25 and 100 nM, and the kinetics of binding were determined via Biacore analysis.

[6] = biological target: T1, human ROR1 expressed on the surface of …; test: cell-based or functional assay; remark: listed apart in the source
[7] = biological target: T2, His-tagged soluble human ROR1 …; test: sandwich ELISA: plate coated with shROR1-His, serial dilutions of diabody, bound diabody detected with biotinylated CD3 and streptavidin-HRP; abs @450nm
Protocol: as §1

T1 sequence (Q01973 30-937): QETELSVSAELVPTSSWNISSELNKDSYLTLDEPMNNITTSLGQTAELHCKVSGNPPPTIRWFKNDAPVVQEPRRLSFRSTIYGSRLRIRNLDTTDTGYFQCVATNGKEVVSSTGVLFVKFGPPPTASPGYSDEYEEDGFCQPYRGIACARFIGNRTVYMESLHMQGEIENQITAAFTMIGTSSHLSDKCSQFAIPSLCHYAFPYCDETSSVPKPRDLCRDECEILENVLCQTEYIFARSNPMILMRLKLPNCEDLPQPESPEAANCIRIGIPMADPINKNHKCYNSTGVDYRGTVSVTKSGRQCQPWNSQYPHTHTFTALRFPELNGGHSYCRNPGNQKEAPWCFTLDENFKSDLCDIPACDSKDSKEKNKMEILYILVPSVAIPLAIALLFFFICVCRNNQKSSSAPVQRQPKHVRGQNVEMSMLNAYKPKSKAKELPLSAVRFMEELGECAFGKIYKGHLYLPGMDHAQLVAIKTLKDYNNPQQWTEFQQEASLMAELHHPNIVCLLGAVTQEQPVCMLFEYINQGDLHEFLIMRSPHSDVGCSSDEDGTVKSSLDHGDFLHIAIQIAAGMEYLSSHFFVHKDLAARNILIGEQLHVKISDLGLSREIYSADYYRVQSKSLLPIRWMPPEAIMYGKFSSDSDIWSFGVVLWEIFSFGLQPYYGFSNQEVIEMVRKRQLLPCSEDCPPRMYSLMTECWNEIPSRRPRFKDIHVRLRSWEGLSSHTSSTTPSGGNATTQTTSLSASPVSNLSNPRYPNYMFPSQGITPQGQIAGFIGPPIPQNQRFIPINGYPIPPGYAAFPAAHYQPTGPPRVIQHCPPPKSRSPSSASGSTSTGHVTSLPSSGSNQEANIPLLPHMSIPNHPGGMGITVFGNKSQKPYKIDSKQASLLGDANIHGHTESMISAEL

Binder	EC50 nM, redirected cell killing of Calu-3 cells by pan T-cells (LDH release) [1]	EC50 nM, redirected cell killing of JIMT-1 cells by pan T-cells (LDH release) [1]	EC50 nM, redirected cell killing of NCI-H1975 cells by pan T-cells (LDH release) [1]	Kd [2]	also measured
TRIDENT-A (other, parental anti-ROR1-VL/VH, CD3 mAb 1 (D65G), TRX2 (anti-CD8) as scFv-Fc third chain) chain 1: QLVLTQSPSASASLGSSVKLTCTLSSGHKTDTIDWYQQQPGKAPRYLMKLEGSGSYNKGSGVPDRFGSGSSSGADRYLTISSLQSEDEADYYCGTDYPGNYLFGGGTQLTVLGGGGSGGGGEVQLVESGGGLVQPGGSLRLSCAASGFTFSTYAMNWVRQAPGKGLEWVGRIRSKYNNYATYYADSVKGRFTISRDDSKNSLYLQMNSLKTEDTAVYYCVRHGNFGNSYVSWFAYWGQGTLVTVSSASTKGEVAACEKEVAALEKEVAALEKEVAALEKGGGDKTHTCPPCPAPEAAGGPSVFLFPPKPKDTLMISRTPEVTCVVVDVSHEDPEVKFNWYVDGVEVHNAKTKPREEQYNSTYRVVSVLTVLHQDWLNGKEYKCKVSNKALPAPIEKTISKAKGQPREPQVYTLPPSREEMTKNQVSLWCLVKGFYPSDIAVEWESNGQPENNYKTTPPVLDSDGSFFLYSKLTVDKSRWQQGNVFSCSVMHEALHNHYTQKSLSLSPGK chain 2: QAVVTQEPSLTVSPGGTVTLTCRSSTGAVTTSNYANWVQQKPGQAPRGLIGGTNKRAPWTPARFSGSLLGGKAALTITGAQAEDEADYYCALWYSNLWVFGGGTKLTVLGGGGSGGGGQEQLVESGGGLVQPGGSLRLSCAASGFTFSDYYMSWVRQAPGKGLEWVATIYPSSGKTYYADSVKGRFTISSDNAKNSLYLQMNSLRAEDTAVYYCARDSYADDAALFDIWGQGTTVTVSSASTKGKVAACKEKVAALKEKVAALKEKVAALKE chain 3: DIQMTQSPSSLSASVGDRVTITCKGSQDINNYLAWYQQKPGKAPKLLIYNTDILHTGVPSRFSGSGSGTDFTFTISSLQPEDIATYYCYQYNNGYTFGCGTKVEIKGGGGSGGGGSGGGGSQVQLVESGGGVVQPGRSLRLSCAASGFTFSDFGMNWVRQAPGKCLEWVALIYYDGSNKFYADSVKGRFTISRDNSKNTLYLQMNSLRAEDTAVYYCAKPHYDGYYHFFDSWGQGTLVTVSSVEPKSADKTHTCPPCPAPEAAGGPSVFLFPPKPKDTLMISRTPEVTCVVVDVSHEDPEVKFNWYVDGVEVHNAKTKPREEQYNSTYRVVSVLTVLHQDWLNGKEYKCKVSNKALPAPIEKTISKAKGQPREPQVYTLPPSREEMTKNQVSLSCAVKGFYPSDIAVEWESNGQPENNYKTTPPVLDSDGSFFLVSKLTVDKSRWQQGNVFSCSVMHEALHNRYTQKSLSLSPGK	0.0027 nM	0.0022 nM	0.0039 nM	1300 pM	–
TRIDENT-B (other, parental anti-ROR1-VL/VH, CD3 mAb 1 (D65G), TRX2 (anti-CD8) as Fab-type heavy and light chains) chain 1: QLVLTQSPSASASLGSSVKLTCTLSSGHKTDTIDWYQQQPGKAPRYLMKLEGSGSYNKGSGVPDRFGSGSSSGADRYLTISSLQSEDEADYYCGTDYPGNYLFGGGTQLTVLGGGGSGGGGEVQLVESGGGLVQPGGSLRLSCAASGFTFSTYAMNWVRQAPGKGLEWVGRIRSKYNNYATYYADSVKGRFTISRDDSKNSLYLQMNSLKTEDTAVYYCVRHGNFGNSYVSWFAYWGQGTLVTVSSASTKGEVAACEKEVAALEKEVAALEKEVAALEKGGGDKTHTCPPCPAPEAAGGPSVFLFPPKPKDTLMISRTPEVTCVVVDVSHEDPEVKFNWYVDGVEVHNAKTKPREEQYNSTYRVVSVLTVLHQDWLNGKEYKCKVSNKALPAPIEKTISKAKGQPREPQVYTLPPSREEMTKNQVSLWCLVKGFYPSDIAVEWESNGQPENNYKTTPPVLDSDGSFFLYSKLTVDKSRWQQGNVFSCSVMHEALHNHYTQKSLSLSPGK chain 2: QAVVTQEPSLTVSPGGTVTLTCRSSTGAVTTSNYANWVQQKPGQAPRGLIGGTNKRAPWTPARFSGSLLGGKAALTITGAQAEDEADYYCALWYSNLWVFGGGTKLTVLGGGGSGGGGQEQLVESGGGLVQPGGSLRLSCAASGFTFSDYYMSWVRQAPGKGLEWVATIYPSSGKTYYADSVKGRFTISSDNAKNSLYLQMNSLRAEDTAVYYCARDSYADDAALFDIWGQGTTVTVSSASTKGKVAACKEKVAALKEKVAALKEKVAALKE heavy: not shown light: not shown	0.0044 nM	0.0052 nM	0.0153 nM	1600 pM	–
DART-B (bispecific antibody, Three chain Fc Region-containing ROR1×CD3 diabody; VH: parental) chain 1: QLVLTQSPSASASLGSSVKLTCTLSSGHKTDTIDWYQQQPGKAPRYLMKLEGSGSYNKGSGVPDRFSGSSSGADRYLTISSLQSEDEADYYCGTDYPGNYLFGGGTQLTVLGGGGSGGGGEVQLVESGGGLVQPGGSLRLSCAASGFTFSTYAMNWVRQAPGKGLEWVGRIRSKYNNYATYYADSVKGRFTISRDDSKNSLYLQMNSLKTEDTAVYYCVRHGNFGNSYVSWFAYWGQGTLVTVSSASTKGEVAACEKEVAALEKEVAALEKEVAALEKGGGDKTHTCPPCPAPEAAGGPSVFLFPPKPKDTLMISRTPEVTCVVVDVSHEDPEVKFNWYVDGVEVHNAKTKPREEQYNSTYRVVSVLTVLHQDWLNGKEYKCKVSNKALPAPIEKTISKAKGQPREPQVYTLPPSREEMTKNQVSLWCLVKGFYPSDIAVEWESNGQPENNYKTTPPVLDSDGSFFLYSKLTVDKSRWQQGNVFSCSVMHEALHNHYTQKSLSLSPGK chain 2: QAVVTQEPSLTVSPGGTVTLTCRSSTGAVTTSNYANWVQQKPGQAPRGLIGGTNKRAPWTPARFSGSLLGGKAALTITGAQAEDEADYYCALWYSNLWVFGGGTKLTVLGGGGSGGGGQEQLVESGGGLVQPGGSLRLSCAASGFTFSDYYMSWVRQAPGKGLEWVATIYPSSGKTYYADSVKGRFTISSDNAKNSLYLQMNSLRAEDTAVYYCARDSYADDAALFDIWGQGTTVTVSSASTKGKVAACKEKVAALKEKVAALKEKVAALKE chain 3: not shown	–	–	–	–	Kd [3]: 650 pM
DART-D (bispecific antibody, Three chain Fc Region-containing ROR1×CD3 diabody) chain 1: QLVLTQSPSASASLGSSVKLTCTLSSGHKTDTIDWYQQQPGKAPRYLMKLEGSGSYNKGSGVPDRFSGSSSGADWYLTISSLQSEDEADYYCGTDYPGNYLFGGGTQLTVLGGGGSGGGGEVQLVESGGGLVQPGGSLRLSCAASGFTFSTYAMNWVRQAPGKGLEWVGRIRSKYNNYATYYADSVKGRFTISRDDSKNSLYLQMNSLKTEDTAVYYCVRHGNFGNSYVSWFAYWGQGTLVTVSSASTKGEVAACEKEVAALEKEVAALEKEVAALEKGGGDKTHTCPPCPAPEAAGGPSVFLFPPKPKDTLMISRTPEVTCVVVDVSHEDPEVKFNWYVDGVEVHNAKTKPREEQYNSTYRVVSVLTVLHQDWLNGKEYKCKVSNKALPAPIEKTISKAKGQPREPQVYTLPPSREEMTKNQVSLWCLVKGFYPSDIAVEWESNGQPENNYKTTPPVLDSDGSFFLYSKLTVDKSRWQQGNVFSCSVMHEALHNHYTQKSLSLSPGK chain 2: QAVVTQEPSLTVSPGGTVTLTCRSSTGAVTTSNYANWVQQKPGQAPRGLIGGTNKRAPWTPARFSGSLLGGKAALTITGAQAEDEADYYCALWYSNLWVFGGGTKLTVLGGGGSGGGGQEQLVESGGGLVQPGGSLRLSCAASGFTFSDYYMSWIRQAPGKGLEWVATIYPSSGKTYYADSAKGRLTISSDNAKDSLYLQMNSLRAEDTAVYYCTRDSYADDAALFDIWGQGTTVTVSSASTKGKVAACKEKVAALKEKVAALKEKVAALKE chain 3: not shown	–	–	–	–	EC50 (read off the curve) [4]: ~1000 pM
DART-1 (bispecific antibody, VL: parental; VH: parental; also called ROR1×CD3 bispecific two chain diabody with parental anti-ROR1-VL and anti-ROR1-VH) chain 1: QLVLTQSPSASASLGSSVKLTCTLSSGHKTDTIDWYQQQPGKAPRYLMKLEGSGSYNKGSGVPDRFGSGSSSGADRYLTISSLQSEDEADYYCGTDYPGNYLFGGGTQLTVLGGGGSGGGGEVQLVESGGGLVQPGGSLRLSCAASGFTFSTYAMNWVRQAPGKGLEWVGRIRSKYNNYATYYADSVKGRFTISRDDSKNSLYLQMNSLKTEDTAVYYCVRHGNFGNSYVSWFAYWGQGTLVTVSSGGCGGGKVAALKEKVAALKEKVAALKEKVAALKE chain 2: QAVVTQEPSLTVSPGGTVTLTCRSSTGAVTTSNYANWVQQKPGQAPRGLIGGTNKRAPWTPARFSGSLLGGKAALTITGAQAEDEADYYCALWYSNLWVFGGGTKLTVLGGGGSGGGGQEQLVESGGGLVQPGGSLRLSCAASGFTFSDYYMSWVRQAPGKGLEWVATIYPSSGKTYYADSVKGRFTISSDNAKNSLYLQMNSLRAEDTAVYYCARDSYADDAALFDIWGQGTTVTVSSGGCGGGEVAALEKEVAALEKEVAALEKEVAALEK	–	–	–	–	Kd [5]: 4000 pM; MR(%) (maximum response), redirected cell killing of HBL-2 cells (LDH release) [6]: 28.5%; MR(%) (maximum response), redirected cell killing of JIMT-1 cells (LDH release) [6]: 42.4%; MR(%) (maximum response), redirected cell killing of Jeko-1 cells (LDH release) [6]: 37.4%; EC50 (read off the curve) [7]: ~2000 pM
